pKd: −log10 of the molar value.
Legend:
WT murine C3b (mouse) [1] = test: SPR; WT murine C3b amine coupled on a CM5 chip; 2-fold dilution series of the FH protein flowed over in duplicate, 30 µl/min; HBST (10 mM HEPES, 150 mM NaCl, 0.005% Tween 20, pH 7.4); steady-state model
WT murine C3b (mouse) [2] = biological target: WT murine C3b (mouse)
[3] = biological target: mouse homodimeric minimal factor H (mHDM-FH, mFH^1–5^18–20^R1–2) (mouse) (UniProt P06909); test: SEC; analytical size exclusion gel filtration; elution volume compared with mFLFH and mini-mFH

Row | pKd (WT murine C3b (mouse) [1]) | stoichiometry N [3] | Substance | IC50 of protection of sheep erythrocytes from lysis by mouse serum (haemolysis assay) (WT murine C3b (mouse) [2]) [nM]
1 | 5.77 | – | Mouse full length Factor H (mFLFH) (from UniProt P06909 19-1234) (natural protein) | –
2 | 6.30 | 2 | mouse homodimeric minimal factor H (mHDM-FH, mFH^1–5^18–20^R1–2) (from UniProt P06909 19-321; P06909 1050-1234; Q61406 24-152) | 8

From publication PMC8696033
